Results reported in patent US20020165186A1, “Compounds that affect CD83 expression, pharmaceutical compositions comprising said compounds and methods for identifying said compounds” (priority 2000, published 2002).

What was measured:
Assay type in all cases: binding
[1] = target: T1, GST protein (Schistosoma japonicum, UniProt P08515); assay: RNA gel mobility shift of CD83 RNA with GST protein control; settings: native polyacrylamide gel, FIG. 3
T1 construct: made in house
Description: (§1) RNA mobility shift experiments were then carried out using the radioactively labeled CD83 RNA and the GST-ELAV (HuR) fusion protein as described above. 1 μl of approximately 150-200 ng/ml radioactively labeled CD83 RNA and 1 μl of GST-ELAV (HuR) (protein concentration: 0.3 mg/ml) were used per reaction. Alternatively, GST protein without ELAV sequences was used as a control. The radioactively labeled CD83 RNA was heated to 80° C. in a water bath and cooled to room temperature directly before the reaction. The GST-ELAV (HuR) fusion protein (or GST control protein directly expressed from the vector pGEX-5X-1 was carefully mixed with a binding mixture consisting of 1 μl radioactively labeled CD83 RNA, 1 μl Rnasin® RNAse inhibitor (diluted 5:1 in PBS), 1 μl 10×PBS and 6 μl MS2 RNA or 5S RNA (Roche Diagnostics, Mannheim, Germany) (0.8 μg/μl) and incubated at room temperature for 30 min. 3 μl of 50% glycerin were added to each reaction to ease loading and analysis of the binding between the GST-ELAV (HuR) fusion protein and the CD83 RNA occurred on a 4% or 6% native polyacrylamide gel with a TBE running buffer of pH 8.3.

[2] = target: T2, GST-ELAV (HuR) (Homo sapiens, UniProt Q15717); assay: RNA gel competition mobility shift with unlabeled CD83 RNA; settings: increasing amounts of unlabeled RNA, FIG. 5
T2 construct: made in house; host or cells: E. coli BL21
T2 sequence (Q15717 whole entry): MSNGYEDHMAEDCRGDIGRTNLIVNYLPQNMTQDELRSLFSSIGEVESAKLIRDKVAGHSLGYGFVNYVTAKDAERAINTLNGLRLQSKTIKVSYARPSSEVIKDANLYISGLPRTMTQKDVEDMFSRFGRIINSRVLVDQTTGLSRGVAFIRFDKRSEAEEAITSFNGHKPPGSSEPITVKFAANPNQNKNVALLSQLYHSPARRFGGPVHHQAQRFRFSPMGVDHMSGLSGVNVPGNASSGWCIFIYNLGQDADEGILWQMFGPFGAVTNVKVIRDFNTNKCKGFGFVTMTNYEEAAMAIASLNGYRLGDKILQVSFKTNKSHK
Description: For this, the binding mixture as described above was produced with increasing amounts of non-radioactive CD83 RNA and the RNA mobility shift experiments were carried out as described above, except that the binding mixture was incubated with the respective protein for 15 min and then the same amount of radioactively labeled CD83 RNA (1 μl) was subsequently added to each reaction and incubation was continued for a further 15 min.

[3] = target: T3, GST-ELAV (HuR) fusion protein (Homo sapiens, UniProt Q15717); assay: RNA gel mobility shift of CD83 RNA with GST-ELAV (HuR); settings: for HuR binding to sub-fragment domain: FIG. 10
T3 construct: made in house; host or cells: E. coli BL21
T3 sequence (Q15717 whole entry, the tested form may be a part): as the sequence (Q15717 whole entry) above
Description: RNA mobility shift experiments are a very sensitive method for characterizing RNA-protein interactions. For this, the RNA to be examined can be amplified and radioactively labeled with the aid of in vitro transcription from a linear DNA template. The labeling generally occurs with […]. In order to ensure the correct folding of the RNA, this is heated in a water bath to 80° C. and cooled to room temperature. RNA obtained in this manner is then incubated with the desired protein and subsequently analyzed on a native polyacrylamide gel, i.e. under non-denaturing conditions.
In order to obtain radioactively labeled RNA for the RNA mobility shift experiments, approximately 20 μg of this vector were linearized with EcoRI and purified on a 0.8% agarose gel. After elution from the gel, the template was extracted with phenol and ethanol precipitated. The resulting DNA was resuspended at a concentration of […] in 20μl nuclease-free water. Radioactively labeled RNA was generated using a Riboprobe In Vitro Transcription System (Promega, Heidelberg, Germany) according to the instructions of the manufacturer using [α-^32P]-UTP. The transcription products were controlled for size and purity by separating 1 μl of the in vitro transcription reaction on a denaturing RNA agarose gel (1.2%), blotting the gel to a nitrocellulose membrane (Amersham-Pharmacia, Freiburg, Germany) for 8 hours and examining the nitrocellulose filter with the aid of photographic film using RNA size standards.
as §1
As a control for the specificity of the interaction between HuR and CD83 mRNA, RNA mobility shifts as described in Example 1 were performed using the GST protein as described above, a GST-L5 fusion protein (Schatz et al. (1998) PNAS USA 95: 1607-1612), and a GST- M9 fusion protein comprising the M9 domain of the heterogeneous nuclear ribonucleoprotein hnRNP A1 (Pollard, V. W. et al. (1996) Cell 86: 985-994).
The resulting vectors were linearized with EcoRI and radioactively labeled RNA was produced and employed in RNA mobility shift assays as described above.

[4] = target: T2, GST-ELAV (HuR); assay: Surface Plasmon Resonance (BIACore X) protein-RNA interaction
Excerpt: Specific protein-RNA interactions were detected by Surface Plasmon Resonance using the BIACore X optical biosensor (Pharmacia Biosensor AB, Upsala, Sweden).
The RNA used contained nucleotides 466 to 615 of SEQ ID NO:1 having a molecular mass of 48,350 gr/mol.
The GST-fusion proteins of interest (GST alone or GST-ELAV (HuR)) were immobilized onto the surface of a CM5 Chip (Pharmacia Biosensor AB, Upsala, Sweden) by using the BIACore GST Capture Kit (Pharmacia Biosensor AB, Upsala, Sweden), according to the manufacturers instructions, until a change of at least 1,000 resonance units (RU) was detectable.
1 μg of in vitro transcribed RNA (using the T7/SP6 Riboprobe Kit, Promega, Mannheim, Germany) was diluted in a total volume of 80 μl HBS-EP buffer (10 mM HEPES, 150 mM NaCl, 3 mM EDTA, 0.005% (v/v) polysorbate 20) and was allowed to flow over the chip at a flow rate of 50μl/minute. The standard running buffer was HBS-EP buffer. The sensor surface was regenerated between assays by injecting 30 μl of 0.5 M NaCl to remove bound analyte.
Determination of KD values and calculation of binding specifity were performed using BIAEvaluation Software 3.1 (Pharmacia Biosensor AB, Upsala, Sweden).

T1 sequence (P08515 whole entry): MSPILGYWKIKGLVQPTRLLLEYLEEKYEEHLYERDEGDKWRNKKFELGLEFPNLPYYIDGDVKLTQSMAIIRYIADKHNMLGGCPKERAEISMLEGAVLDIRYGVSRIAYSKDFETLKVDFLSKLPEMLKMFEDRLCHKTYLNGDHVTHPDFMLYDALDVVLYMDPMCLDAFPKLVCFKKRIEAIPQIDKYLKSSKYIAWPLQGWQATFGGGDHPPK

B1: CD83 RNA: in vitro transcribed RNA of nucleotides 1 to 618 of SEQ ID NO:1 (human CD83 coding region) (nucleic acid, listed as Homo sapiens)
sense: ATGTCGCGCGGCCTCCAGCTTCTGCTCCTGAGCTGCGCCTACAGCCTGGCTCCCGCGACGCCGGAGGTGAAGGTGGCTTGCTCCGAAGATGTGGACTTGCCCTGCACCGCCCCCTGGGATCCGCAGGTTCCCTACACGGTCTCCTGGGTCAAGTTATTGGAGGGTGGTGAAGAGAGGATGGAGACACCCCAGGAAGACCACCTCAGGGGACAGCACTATCATCAGAAGGGGCAAAATGGTTCTTTCGACGCCCCCAATGAAAGGCCCTATTCCCTGAAGATCCGAAACACTACCAGCTGCAACTCGGGGACATACAGGTGCACTCTGCAGGACCCGGATGGGCAGAGAAACCTAAGTGGCAAGGTGATCTTGAGAGTGACAGGATGCCCTGCACAGCGTAAAGAAGAGACTTTTAAGAAATACAGAGCGGAGATTGTCCTGCTGCTGGCTCTGGTTATTTTCTACTTAACACTCATCATTTTCACTTGTAAGTTTGCACGGCTACAGAGTATCTTCCCAGATTTTTCTAAAGCTGGCATGGAACGAGCTTTTCTCCCAGTTACCTCCCCAAATAAGCATTTAGGGCTAGTGACTCCTCACAAGACAGAACTGGTATGA
modifications: RNA transcript; CDS (1)..(615)
mobility shift of the RNA by GST protein control [1]: no shift occurred
competition of labeled CD83 RNA binding by unlabeled RNA [2]: capable of titrating free GST-ELAV (HuR) protein
specificity of the shift in mobility (GST, GST-L5, GST-M9, GST-ELAV (HuR)) ([3]; FIG. 4): only observed with protein comprising the HuR sequence
mobility shift of the RNA by GST-ELAV (HuR) ([3]; native polyacrylamide gel, FIG. 3): shifted the CD83 RNA to a higher position in the gel
region of HuR binding ([3]; sub-fragments nt1-294, nt202-414, nt295-618, FIG. 6): from nucleotide 415 to nucleotide 618

B2: stem-loop-1: CD83 RNA sub-fragment from nucleotide 295 to nucleotide 465 of SEQ ID NO:1, single stem-loop structure (nucleic acid, listed as Homo sapiens)
sense: AGCTGCAACTCGGGGACATACAGGTGCACTCTGCAGGACCCGGATGGGCAGAGAAACCTAAGTGGCAAGGTGATCTTGAGAGTGACAGGATGCCCTGCACAGCGTAAAGAAGAGACTTTTAAGAAATACAGAGCGGAGATTGTCCTGCTGCTGGCTCTGGTTATTTTCTAC
modifications: RNA; CDS (1)..(615)
HuR binding to sub-fragment domain [3]: can bind

B3: stem-loop-2: CD83 RNA sub-fragment from nucleotide 466 to nucleotide 618 of SEQ ID NO:1, 3-pronged stem-loop structure (nucleic acid, listed as Homo sapiens)
sense: TTAACACTCATCATTTTCACTTGTAAGTTTGCACGGCTACAGAGTATCTTCCCAGATTTTTCTAAAGCTGGCATGGAACGAGCTTTTCTCCCAGTTACCTCCCCAAATAAGCATTTAGGGCTAGTGACTCCTCACAAGACAGAACTGGTATGA
modifications: RNA; CDS (1)..(615)
HuR binding to sub-fragment domain [3]: can bind

B4: CD83 from nucleotides 466 to 615 of SEQ ID NO:1: in vitro transcribed RNA containing nucleotides 466 to 615 of SEQ ID NO:1 (nucleic acid, listed as Homo sapiens)
sense: TTAACACTCATCATTTTCACTTGTAAGTTTGCACGGCTACAGAGTATCTTCCCAGATTTTTCTAAAGCTGGCATGGAACGAGCTTTTCTCCCAGTTACCTCCCCAAATAAGCATTTAGGGCTAGTGACTCCTCACAAGACAGAACTGGTA
modifications: RNA transcript; CDS (1)..(615)
binding of HuR (affinity and specificity in words) [4]: high affinity and is highly specific
